From paper PMC5360445, “SMOC can act as both an antagonist and an expander of BMP signaling” (eLife, 2017)

Key:
[1] = molecular target: XSMOC-1∆EC (XSMOC-1 lacking the EC domain) (Xenopus); experiment: SEC; HiLoad Superdex-200 PG, 20 mM Tris/HCl pH 7.5, 300 mM NaCl, 2 mM CaCl2, 10% glycerol; proteins refolded in the presence of 2 mM CaCl2; molecular weights calculated from elution
[2] = molecular target: recombinant mature XSMOC-1 (Xenopus SMOC-1) (Xenopus); experiment: SEC; XSMOC-1 refolded in the presence of 2 mM CaCl2, then dialysed in the presence of 10.5 mM EDTA
[3] = molecular target: recombinant mature XSMOC-1 (Xenopus SMOC-1) (Xenopus); experiment: SEC; HiLoad Superdex-200 PG, 20 mM Tris/HCl pH 7.5, 300 mM NaCl, 2 mM CaCl2, 10% glycerol; proteins refolded in the presence of 2 mM CaCl2; molecular weights calculated from elution
[4] = molecular target: recombinant mature XSMOC-1 (Xenopus SMOC-1) (Xenopus); experiment: not stated; data not shown; in the presence of 50 mM EDTA and 1 mM nitriloacetic acid
[5] = molecular target: the molecule itself; experiment: SEC; HiLoad Superdex-200 PG, 20 mM Tris/HCl pH 7.5, 300 mM NaCl, 2 mM CaCl2, 10% glycerol; proteins refolded in the presence of 2 mM CaCl2; molecular weights calculated from elution

Molecule: XSMOC-1∆EC (XSMOC-1 lacking the EC domain) (domain or fragment)
- stoichiometry N [1]: 2

Molecule: recombinant mature XSMOC-1 (Xenopus SMOC-1) (natural protein)
- stoichiometry N [2]: 2
- stoichiometry N [3]: 2
- stoichiometry N [4]: 2

B1: human SMOC-1 (natural protein, UniProt Q9H4F8 27-434, looked up)
chain: HRTTGPRFLISDRDPQCNLHCSRTQPKPICASDGRSYESMCEYQRAKCRDPTLGVVHRGRCKDAGQSKCRLERAQALEQAKKPQEAVFVPECGEDGSFTQVQCHTYTGYCWCVTPDGKPISGSSVQNKTPVCSGSVTDKPLSQGNSGRKDDGSKPTPTMETQPVFDGDEITAPTLWIKHLVIKDSKLNNTNIRNSEKVYSCDQERQSALEEAQQNPREGIVIPECAPGGLYKPVQCHQSTGYCWCVLVDTGRPLPGTSTRYVMPSCESDARAKTTEADDPFKDRELPGCPEGKKMEFITSLLDALTTDMVQAINSAAPTGGGRFSEPDPSHTLEERVVHWYFSQLDSNSSNDINKREMKPFKRYVKKKAKPKKCARRFTDYCDLNKDKVISLPELKGCLGVSKEGRLV
notes: human SMOC-1, construct pET28-SMOC-1-HT of Novinec et al., 2008; expected monomeric size 46.6 kDa; probably the protein without its signal peptide; also called hSMOC-1; pET28-SMOC-1-HT
- stoichiometry N [5]: 2
